Laboratory results as given in paper PMC9935730, “Expression, Purification, Structural and Functional Characterization of Recombinant Human Parvulin 17” (Molecular Biotechnology, 2022).
Square brackets hold non-standard residues; d marks the D form. Primed or numbered codes have the meaning given here. * marks the point of attachment. Dabcyl′ = quencher group on the Lys side chain, CN(C)c1ccc(/N=N/c2ccc(C(=O)*)cc2)cc1; EDANS = O=S(=O)(O)c1cccc2c(NCCN*)cccc12; pS = N[C@@H](COP(=O)(O)O)C(=O)O

Target: T1, FRET peptide substrate Ac-EK(Dabcyl)pSPRFE(EDANS)KA-NH2 (SMILES …)
T1 peptide: Ac-EK(Dabcyl′)[pS]PRFE(EDANS)KA-NH2
Assay: cell-based or functional assay

B1: Catalytic domain of Pin1, residues 50-163 (domain or fragment, human, UniProt Q13526 50-163, looked up)
chain: GEPARVRCSHLLVKHSQSRRPSSWRQEKITRTKEEALELINGYIQKIKSGEEDFESLASQFSDCSSAKARGDLGAFSRGQMQKPFEDASFALRTGEMSGPVFTDSGIHIILRTE
Km, FRET-based chymotrypsin-coupled peptidyl-prolyl cis–trans isomerase assay (values at 1 h): 48.2 µM

B2: Catalytic domain of Par17, residues 60-156 (domain or fragment)
chain: not shown
Km, FRET-based chymotrypsin-coupled peptidyl-prolyl cis–trans isomerase assay (values at 1 h): 62.5 µM
